Test results from the supplement of paper PMC11316812.
± gives the standard deviation of the averaged measurements.

How the values were obtained:
MCF7 = test: percentage of EdU-negative (G0-arrested) nuclei per well, 72 h; higher = more G0 arrest; details: reference: sequence is the full UniProt precursor, the tested protein was the secreted form or ectodomain
hTERT-HMEC = test: as above; details: reference: sequence is the full UniProt precursor, the tested protein was the secreted form or ectodomain
[1] = protein concentration 0.0225 µM
[2] = protein concentration 0.01525 µM
[3] = protein concentration 0.1525 µM
[4] = protein concentration 0.0155 µM
[5] = protein concentration 0.03125 µM
[6] = protein concentration 0.3125 µM
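Also: secreted proteins added to cultured cells, EdU pulse at the end, nuclei found by Hoechst imaging, EdU status from nuclear versus surrounding ring intensity ratio, PBS as neutral control.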

Sequence | percentage of EdU-negative (MCF7; [1]) | percentage of EdU-negative (MCF7; protein concentration 0.225 µM) | percentage of EdU-negative (hTERT-HMEC; [1]) | percentage of EdU-negative (hTERT-HMEC; protein concentration 0.225 µM) | also measured
MLLLVTSLLLCELPHPAFLLIPEKSDLRTVAPASSLNVRFDSRTMNLSWDCQENTTFSKCFLTDKKNRVVEPRLSNNECSCTFREICLHEGVTFEVHVNTSQRGFQQKLLYPNSGREGTAAQNFSCFIYNADLMNCTWARGPTAPRDVQYFLYIRNSKRRREIRCPYYIQDSGTHVGCHLDNLSGLTSRNYFLVNGTSREIGIQFFDSLLDTKKIERFNPPSNVTVRCNTTHCLVRWKQPRTYQKLSYLDFQYQLDVHRKNTQPGTENLLINVSGDLENRYNFPSSEPRAKHSVKIRAADVRILNWSSWSEAIEFGSDDGNLGSVYIYVLLIVGTLVCGIVLGFLFKRFLRIQRLFPPVPQIKDKLNDNHEVEDEIIWEEFTPEEGKGYREEVLTVKEIT | 23.5 ± 1.9% | 25.3 ± 2.3% | 5.11 ± 0.35% | 4.81 ± 0.71% | 
MWATLPLLCAGAWLLGVPVCGAAELCVNSLEKFHFKSWMSKHRKTYSTEEYHHRLQTFASNWRKINAHNNGNHTFKMALNQFSDMSFAEIKHKYLWSEPQNCSATKSNYLRGTGPYPPSVDWRKKGNFVSPVKNQGACGSCWTFSTTGALESAIAIATGKMLSLAEQQLVDCAQDFNNHGCQGGLPSQAFEYILYNKGIMGEDTYPYQGKDGYCKFQPGKAIGFVKDVANITIYDEEAMVEAVALYNPVSFAFEVTQDFMMYRTGIYSSTSCHKTPDKVNHAVLAVGYGEKNGIPYWIVKNSWGPQWGMNGYFLIERGKNMCGLAACASYPIPLV |  |  |  |  | percentage of EdU-negative (MCF7; [2]): 27 ± 2.4%; percentage of EdU-negative (MCF7; [3]): 29.3 ± 4.1%; percentage of EdU-negative (hTERT-HMEC; [2]): 5.31 ± 0.13%; percentage of EdU-negative (hTERT-HMEC; [3]): 8.87 ± 0.59%
MFSTKALLLAGLISTALAGPWANICAGKSSNEIRTCDRHGCGQYSAQRSQRPHQGVDILCSAGSTVYAPFTGMIVGQEKPYQNKNAINNGVRISGRGFCVKMFYIKPIKYKGPIKKGEKLGTLLPLQKVYPGIQSHVHIENCDSSDPTAYL | 23.8 ± 1.3% | 26.3 ± 0.79% | 4.82 ± 1.7% | 7.53 ± 0.43% | 
MLRGTLLCAVLGLLRAQPFPCPPACKCVFRDAAQCSGGDVARISALGLPTNLTHILLFGMGRGVLQSQSFSGMTVLQRLMISDSHISAVAPGTFSDLIKLKTLRLSRNKITHLPGALLDKMVLLEQLFLDHNALRGIDQNMFQKLVNLQELALNQNQLDFLPASLFTNLENLKLLDLSGNNLTHLPKGLLGAQAKLERLLLHSNRLVSLDSGLLNSLGALTELQFHRNHIRSIAPGAFDRLPNLSSLTLSRNHLAFLPSALFLHSHNLTLLTLFENPLAELPGVLFGEMGGLQELWLNRTQLRTLPAAAFRNLSRLRYLGVTLSPRLSALPQGAFQGLGELQVLALHSNGLTALPDGLLRGLGKLRQVSLRRNRLRALPRALFRNLSSLESVQLDHNQLETLPGDVFGALPRLTEVLLGHNSWRCDCGLGPFLGWLRQHLGLVGGEEPPRCAGPGAHAGLPLWALPGGDAECPGPRGPPPRPAADSSSEAPVHPALAPNSSEPWVWAQPVTTGKGQDHSPFWGFYFLLLAVQAMITVIIVFAMIKIGQLFRKLIRERALG |  |  |  |  | percentage of EdU-negative (MCF7; [4]): 24.8 ± 4.1%; percentage of EdU-negative (MCF7; protein concentration 0.155 µM): 32.8 ± 1.1%; percentage of EdU-negative (hTERT-HMEC; [4]): 4.92 ± 0.41%; percentage of EdU-negative (hTERT-HMEC; protein concentration 0.155 µM): 9.145 ± 0.063%
MPRPAPARRLPGLLLLLWPLLLLPSAAPDPVARPGFRRLETRGPGGSPGRRPSPAAPDGAPASGTSEPGRARGAGVCKSRPLDLVFIIDSSRSVRPLEFTKVKTFVSRIIDTLDIGPADTRVAVVNYASTVKIEFQLQAYTDKQSLKQAVGRITPLSTGTMSGLAIQTAMDEAFTVEAGAREPSSNIPKVAIIVTDGRPQDQVNEVAARAQASGIELYAVGVDRADMASLKMMASEPLEEHVFYVETYGVIEKLSSRFQETFCALDPCVLGTHQCQHVCISDGEGKHHCECSQGYTLNADKKTCSALDRCALNTHGCEHICVNDRSGSYHCECYEGYTLNEDRKTCSAQDKCALGTHGCQHICVNDRTGSHHCECYEGYTLNADKKTCSVRDKCALGSHGCQHICVSDGAASYHCDCYPGYTLNEDKKTCSATEEARRLVSTEDACGCEATLAFQDKVSSYLQRLNTKLDDILEKLKINEYGQIHR | 22.2 ± 2.4% | 26.2 ± 2% | 4.9 ± 0.095% | 5.61 ± 0.67% | 
MEMFQGLLLLLLLSMGGTWASREMLRPRCRPINATLAVEKEGCPVCITVNTTICAGYCPTMTRVLQGVLPALPQVVCNYRDVRFESIRLPGCPRGVNPVVSYAVALSCQCALCRRSTTDCGGPKDHPLTCDDPRFQASSSSKAPPPSLPSPSRLPGPSDTPILPQ |  |  |  |  | percentage of EdU-negative (MCF7; [5]): 24.4 ± 2.5%; percentage of EdU-negative (MCF7; [6]): 25 ± 1%; percentage of EdU-negative (hTERT-HMEC; [5]): 5.61 ± 0.69%; percentage of EdU-negative (hTERT-HMEC; [6]): 5.26 ± 0.82%
